Experimental data: US20090291879A1 (published 2009)

B1: Tissue extracted bovine chondroadherin (ligand, UniProt Q27972 25-361, looked up)
chain: CPQNCHCHSDLQHVICDKVGLQKIPKVSEKTKLLNLQRNNFPVLATNSFRAMPNLVSLHLQHCQIREVAAGAFRGLKQLIYLYLSHNDIRVLRAGAFDDLTELTYLYLDHNKVTELPRGLLSPLVNLFILQLNNNKIRELRSGAFQGAKDLRWLYLSENSLSSLQPGALDDVENLAKFYLDRNQLSSYPSAALSKLRVVEELKLSHNPLKSIPDNAFQSFGRYLETLWLDNTNLEKFSDGAFLGVTTLKHVHLENNRLHQLPSNFPFDSLETLTLTNNPWKCTCQLRGLRRWLEAKTSRPDATCASPAKFRGQHIRDTDAFRGCKFPTKRSKKAGRH
B2: Synthetic peptide CQLRGLRRWLEAK (12-mer chondroadherin peptide plus an N-terminal cysteine) (peptide)
peptide: CQLRGLRRWLEAK
notes: also called 12-mer peptide

Assays:
[1] = target: T1, Integrin α2β1 on human chondrosarcoma cells (K9, K105) (human, UniProt P17301 30-1181; P05556 21-798); assay: adhesion of K9 cells to coated protein, 1 hour, N-acetylglucosaminidase read-out; receptor as attributed in paragraph 181
T1 construct: whole, on cells; The cells are not engineered; also called integrin α2β1 receptor; β1 integrin
Experimental: To test cell binding, the chondrosarcoma cells or bovine chondrocytes were suspended in PBS containing 0.1% BSA, 25 U/ml collagenase and added to the wells (50,000/well), in the absence or presence of various peptide pools or the synthetic peptides (200, 100, 50, 25, 12.5 μg/ml). Non-adherent cells were removed after 1 hour and adhesion was determined by measuring lysosomal N-acetylglucosaminidase (12). Adhesion and spreading was visualized by light microscopy. In the time studies, k105 cells were allowed to adhere for 30 minutes, unbound cells were removed and medium without serum supplemented with or without peptides (250 μg/ml), β1 integrin antibody (clone P4C10, Gibco BRL), EDTA (5 mM) was added. Cell morphology was visualized by light microscopy after 1, 3 and 20 hours.
48-well tissue culture dishes were coated with 5 μg/ml collagen type II, tissue extracted bovine chondroadherin, human chondroadherin expressed in EBNA cells and human chondroadherin expressed in E. coli and blocked for non-specific binding with BSA. The cells were allowed to adhere for 1 hour at 37° C. Nonadherent cells were removed by washing and adhesion was determined by analyzing lysosomal N-acetylglucosaminidase. Adhesion is expressed in number of cells, 50,000 cells/well were seeded.

[2] = target: T1, Integrin α2β1 on human chondrosarcoma …; assay: adhesion of k105 cells to coated peptide, light microscopy; receptor as attributed in paragraph 163 and paragraph 181

T1 sequence (P17301 30-1181, chain 1 of 2): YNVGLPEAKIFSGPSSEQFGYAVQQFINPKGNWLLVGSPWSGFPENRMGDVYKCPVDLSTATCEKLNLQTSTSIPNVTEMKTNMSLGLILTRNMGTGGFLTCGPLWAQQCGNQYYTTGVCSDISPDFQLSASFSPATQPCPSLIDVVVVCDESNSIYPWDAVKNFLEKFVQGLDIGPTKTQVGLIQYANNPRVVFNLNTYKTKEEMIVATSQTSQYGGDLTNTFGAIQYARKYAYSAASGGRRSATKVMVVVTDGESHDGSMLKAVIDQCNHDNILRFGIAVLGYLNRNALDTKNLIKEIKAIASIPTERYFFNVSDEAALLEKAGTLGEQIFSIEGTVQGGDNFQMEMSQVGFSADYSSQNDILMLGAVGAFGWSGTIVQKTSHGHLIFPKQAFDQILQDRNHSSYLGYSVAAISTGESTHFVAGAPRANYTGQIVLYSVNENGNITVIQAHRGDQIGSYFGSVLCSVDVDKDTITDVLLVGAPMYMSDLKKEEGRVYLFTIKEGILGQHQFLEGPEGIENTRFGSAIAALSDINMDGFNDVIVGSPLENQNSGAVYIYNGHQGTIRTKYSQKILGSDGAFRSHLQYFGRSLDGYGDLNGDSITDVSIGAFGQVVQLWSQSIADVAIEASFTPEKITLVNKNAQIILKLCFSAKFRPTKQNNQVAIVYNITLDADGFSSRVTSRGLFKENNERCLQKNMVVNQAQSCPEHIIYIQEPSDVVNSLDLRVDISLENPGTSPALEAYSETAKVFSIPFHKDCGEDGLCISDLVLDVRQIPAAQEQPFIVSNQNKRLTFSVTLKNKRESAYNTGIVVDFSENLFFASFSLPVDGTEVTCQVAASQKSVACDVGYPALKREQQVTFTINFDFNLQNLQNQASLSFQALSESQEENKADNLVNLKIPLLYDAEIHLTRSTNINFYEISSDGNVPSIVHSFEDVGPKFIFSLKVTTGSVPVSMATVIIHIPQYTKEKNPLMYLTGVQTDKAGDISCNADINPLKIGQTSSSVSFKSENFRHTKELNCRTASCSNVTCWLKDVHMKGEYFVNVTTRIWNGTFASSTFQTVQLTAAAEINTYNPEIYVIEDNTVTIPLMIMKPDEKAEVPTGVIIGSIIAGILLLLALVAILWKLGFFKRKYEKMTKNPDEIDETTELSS
T1 sequence (P05556 21-798, chain 2 of 2): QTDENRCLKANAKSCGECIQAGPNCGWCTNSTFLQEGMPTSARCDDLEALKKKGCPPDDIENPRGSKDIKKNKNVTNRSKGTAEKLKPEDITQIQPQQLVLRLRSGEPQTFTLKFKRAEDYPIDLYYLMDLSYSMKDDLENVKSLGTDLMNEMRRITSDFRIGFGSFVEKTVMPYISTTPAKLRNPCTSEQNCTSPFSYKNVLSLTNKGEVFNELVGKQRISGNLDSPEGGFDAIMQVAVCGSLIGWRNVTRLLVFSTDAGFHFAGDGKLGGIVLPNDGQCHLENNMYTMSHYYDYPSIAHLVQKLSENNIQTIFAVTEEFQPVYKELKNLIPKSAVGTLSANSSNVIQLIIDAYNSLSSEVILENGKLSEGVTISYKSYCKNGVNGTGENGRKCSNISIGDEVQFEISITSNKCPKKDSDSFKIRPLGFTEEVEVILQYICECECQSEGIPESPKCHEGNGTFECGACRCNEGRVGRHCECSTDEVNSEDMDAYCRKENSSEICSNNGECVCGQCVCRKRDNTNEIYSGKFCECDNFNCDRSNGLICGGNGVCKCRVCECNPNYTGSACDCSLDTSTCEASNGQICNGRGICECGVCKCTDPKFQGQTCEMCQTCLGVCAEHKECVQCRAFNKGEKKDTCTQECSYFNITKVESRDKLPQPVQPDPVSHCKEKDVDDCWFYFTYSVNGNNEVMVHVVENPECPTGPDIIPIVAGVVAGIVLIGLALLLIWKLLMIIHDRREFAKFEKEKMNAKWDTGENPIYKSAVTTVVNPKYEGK

binding result [1]	binding result [2]	Binder
binds		B1
	binds	B2
